The chains are these.
B1: Kif15-M-His (amino acids 1-714, motor domain and part of the stalk) (domain or fragment, human, UniProt Q9NS87 1-714, looked up)
chain: MAPGCKTELRSVTNGQSNQPSNEGDAIKVFVRIRPPAERSGSADGEQNLCLSVLSSTSLRLHSNPEPKTFTFDHVADVDTTQESVFATVAKSIVESCMSGYNGTIFAYGQTGSGKTFTMMGPSESDNFSHNLRGVIPRSFEYLFSLIDREKEKAGAGKSFLCKCSFIEIYNEQIYDLLDSASAGLYLREHIKKGVFVVGAVEQVVTSAAEAYQVLSGGWRNRRVASTSMNRESSRSHAVFTITIESMEKSNEIVNIRTSLLNLVDLAGSERQKDTHAEGMRLKEAGNINRSLSCLGQVITALVDVGNGKQRHVCYRDSKLTFLLRDSLGGNAKTAIIANVHPGSRCFGETLSTLNFAQRAKLIKNKAVVNEDTQGNVSQLQAEVKRLKEQLAELASGQTPPESFLTRDKKKTNYMEYFQEAMLFFKKSEQEKKSLIEKVTQLEDLTLKKEKFIQSNKMIVKFREDQIIRLEKLHKESRGGFLPEEQDRLLSELRNEIQTLREQIEHHPRVAKYAMENHSLREENRRLRLLEPVKRAQEMDAQTIAKLEKAFSEISGMEKSDKNQQGFSPKAQKEPCLFANTEKLKAQLLQIQTELNNSKQEYEEFKELTRKRQLELESELQSLQKANLNLENLLEATKACKRQEVSQLNKIHAETLKIITTPTKAYQLHSRPVPKLSPEMGSFGSLYTQNSSILDNDILNEPVPPEMNEQAFEA
notes: Kif15, human, first 714 amino acids (motor domain and part of the stalk sufficient for dimerization), cloned into pET-21b; also called recombinant Kif15 motor domain; source: E. coli BL21 (DE3), purified (Ni-NTA)
B2: KBP-His (full-length His-tagged KBP) (natural protein, human, UniProt Q96EK5 1-621, looked up)
chain: MANVPWAEVCEKFQAALALSRVELHKNPEKEPYKSKYSARALLEEVKALLGPAPEDEDERPEAEDGPGAGDHALGLPAEVVEPEGPVAQRAVRLAVIEFHLGVNHIDTEELSAGEEHLVKCLRLLRRYRLSHDCISLCIQAQNNLGILWSEREEIETAQAYLESSEALYNQYMKEVGSPPLDPTERFLPEEEKLTEQERSKRFEKVYTHNLYYLAQVYQHLEMFEKAAHYCHSTLKRQLEHNAYHPIEWAINAATLSQFYINKLCFMEARHCLSAANVIFGQTGKISATEDTPEAEGEVPELYHQRKGEIARCWIKYCLTLMQNAQLSMQDNIGELDLDKQSELRALRKKELDEEESIRKKAVQFGTGELCDAISAVEEKVSYLRPLDFEEARELFLLGQHYVFEAKEFFQIDGYVTDHIEVVQDHSALFKVLAFFETDMERRCKMHKRRIAMLEPLTVDLNPQYYLLVNRQIQFEIAHAYYDMMDLKVAIADRLRDPDSHIVKKINNLNKSALKYYQLFLDSLRDPNKVFPEHIGEDVLRPAMLAKFRVARLYGKIITADPKKELENLATSLEHYKFIVDYCEKHPEAAQEIEVELELSKEMVSLLPTKMERFRTKMALT
notes: also called recombinant His-tagged KBP; source: E. coli BL21 (DE3), purified (Ni-NTA)

Data set [1] concerns the molecule itself. Put plainly: SEC + other: sucrose gradient centrifugation; 80 μg of each protein alone or both in motor buffer (100mM PIPES, 2mM MgAc2, 1mM EGTA, 1mM DTT), pre-incubated 30 min on ice; Superose 6 column; 6-28% sucrose gradients, 16 h at 4°C; with or without ATP; native molecular weights calculated from Stokes radius and sedimentation coefficient.
Data set [2] deals with B1. Described as above. To be noted: both partners purified.

Consider B1, for which, in data set [1], the stoichiometry N (commonly a count of units in the complex or per binding partner) is 2.
As to B2, in data set [2], the “stoichiometry N” value is 2 KBP per Kif15-M dimer.

Values taken from PMC5405935, “Role of Kif15 and its novel mitotic partner KBP in K-fiber dynamics and chromosome alignment” (PLoS ONE, 2017).
